Here are results for three proteins from paper PMC5757174, “Biophysical characterization of Atg11, a scaffold protein essential for selective autophagy in yeast” (FEBS Open Bio, 2017).

Values joined by “and” are separate entries in the source; they are usually repeats but may differ in a detail not shown here. Identical values can stand only once.

Data set [1] deals with the molecule itself. The data set is described as follows: AUC; sedimentation velocity, 42 000 r.p.m., 20 °C; full-length Atg11 at 0.65 mg/mL in 20 mM Tris pH 8.0, 300 mM NaCl, 1 mM DTT; c(s) by SEDFIT.
The target in data set [2] is Q12527. The data set can be described thus: SEC; Superose 6 Increase 10/300 GL, 20 mM Tris pH 8.0, 300 mM NaCl, 1 mM DTT; mass estimated from globular standards.
The target of data set [3] is Q12527. The data set is described as follows: SEC; Superdex 200 Increase 10/300 GL, 20 mM Tris pH 8.0, 150 mM NaCl; mass estimated from globular standards.
Data set [4] deals with the molecule itself. The data set is described as follows: AUC; sedimentation velocity, 36 000 r.p.m., 20 °C; Atg11_N at 0.61 mg/mL and Atg11_C at 0.92 mg/mL in 20 mM Tris pH 8.0, 150 mM NaCl; c(s) by SEDFIT.

B1: full-length S. cerevisiae Atg11 (residues 1-1178) (natural protein, UniProt Q12527 1-1178, looked up)
chain: MADADEYSTAPTQQEITPLQTTATIINAISGECITTNVDFFVSLDKFKQFIARKWKIPPDQLLILLPYGNKLKPSMFKELLINRSFTLNDFYVYDRRLFSLVSKPTPTNLLTSKDSNPMNSPNSNDLTETLEYLIKNSHISQYQGSDTIMIKPMPSPLEDADVDLSRLNYHSVTSLLTTNLGWLSALEIDVHYFKSLIPDIIAHIKRIFDGLTVCSQYLKLYCFDVESLYNSNVQFLNQLVDNGMTSKWEKCFNDTLSKLTALEGDSLQKFINIESLLENEKSVKILNHSINGKLNKIKREIDENASFRDIITVNIDRLRQMFTPNESKFELEDQMAESFEVLVSEMRTRSRNVLDKEEEEFNSQEFLKSMNVMLEKDKKESVKTLFTISQALYSQIGELIDLKKSLQKHAVAILGNIAFTQMEILGIKRLLLNECNKDLELYKKYEVEFAQVEDLPLIYGLYLIEKYRRLSWFQQILSFISNFNQDLELFKQNELRTRNKWVKNFGSIATVFCEDLLSSSDFKRLNEYHSHTSPPNEDEEDENENSIANYRQDLVKVSQAIDNYMTQIKETDVSEPIIDLLSKTLFETKRFHIIYSNFKNNNNNSSNGNSISPEGSIALKSDDVVKGYKTRIKKLESLLHEFQYSDIGHWPQGVLNTHLKPFRGSATSINKKKFLGASVLLEPANISEVNIDSVSQANNHQIQELESNVDDLLHQLQLLKEENNRKSMQISEMGKKISDLEVEKTAYRETLTNLNQELARLTNEEQSHRTEIFTLNASFKKQLNDIISQDNEKIEKLTGDYDDVSKSRERLQMDLDESNKKHEQEVNLLKADIERLGKQIVTSEKSYAETNSSSMEKGEKFETIPLAEDPGRENQISAYTQTLQDRIFDIISTNIFILENIGLLLTFDNNNNIQIRRVKGLKKGTAQSNILDESTQMLDAHDNSLIKSPVFQKLKDEYELIKSVANGSEKDTQQSIFLGNITQLYDNKLYEVAVIRRFKDIETLAKKLTKENKIKRTLLERFQREKVTLRNFQIGDLALFLPTRENVNSVGSMSSSTSSLSSSFSSVDLSTPPPLDAMSIQSSPSVIHSNVINQASISGRDKNKLMRPWAAFTAFEESTRYFLKDEKGLTKGKEWFVGRIVTLEHFVADSPSNNPFRLPKGSVWFQVTAVVVSYQGV
notes: Atg11, Saccharomyces cerevisiae, residues 1-1178 (1178 amino acids, 135 kDa); C terminus carried an HRV3C protease site followed by FLAG and 6x His tags; Residues of the HRV3C site may remain at the C terminus; also called full-length Atg11; source: High Five insect cells, baculovirus expression system, purified (Talon, HiTrap Q, HRV3C cleavage, Superose6 Increase); not shown: FLAG, C-terminal, …
In the case of B1, the “stoichiometry N” value in data set [1] was 1.6 copies. Further, in the data set with Q12527 [2], the “copies from the apparent SEC mass (globular standards)” value (shortened to “copies from the apparent SEC mass”) is given as 8–9 copies of Atg11.

B2: N-terminal region of Atg11 (residues 1-646) (protein)
chain: MADADEYSTAPTQQEITPLQTTATIINAISGECITTNVDFFVSLDKFKQFIARKWKIPPDQLLILLPYGNKLKPSMFKELLINRSFTLNDFYVYDRRLFSLVSKPTPTNLLTSKDSNPMNSPNSNDLTETLEYLIKNSHISQYQGSDTIMIKPMPSPLEDADVDLSRLNYHSVTSLLTTNLGWLSALEIDVHYFKSLIPDIIAHIKRIFDGLTVCSQYLKLYCFDVESLYNSNVQFLNQLVDNGMTSKWEKCFNDTLSKLTALEGDSLQKFINIESLLENEKSVKILNHSINGKLNKIKREIDENASFRDIITVNIDRLRQMFTPNESKFELEDQMAESFEVLVSEMRTRSRNVLDKEEEEFNSQEFLKSMNVMLEKDKKESVKTLFTISQALYSQIGELIDLKKSLQKHAVAILGNIAFTQMEILGIKRLLLNECNKDLELYKKYEVEFAQVEDLPLIYGLYLIEKYRRLSWFQQILSFISNFNQDLELFKQNELRTRNKWVKNFGSIATVFCEDLLSSSDFKRLNEYHSHTSPPNEDEEDENENSIANYRQDLVKVSQAIDNYMTQIKETDVSEPIIDLLSKTLFETKRFHIIYSNFKNNNNNSSNGNSISPEGSIALKSDDVVKGYKTRIKKLESLLHEFQYS
Regarding B2, the “copies from the apparent SEC mass” value with Q12527 [3] is 6 and 7–8 copies of each protein, respectively.

B3: C-terminal region of Atg11 (residues 700-1178) (domain or fragment, S. cerevisiae, UniProt Q12527 700-1178, looked up)
chain: NHQIQELESNVDDLLHQLQLLKEENNRKSMQISEMGKKISDLEVEKTAYRETLTNLNQELARLTNEEQSHRTEIFTLNASFKKQLNDIISQDNEKIEKLTGDYDDVSKSRERLQMDLDESNKKHEQEVNLLKADIERLGKQIVTSEKSYAETNSSSMEKGEKFETIPLAEDPGRENQISAYTQTLQDRIFDIISTNIFILENIGLLLTFDNNNNIQIRRVKGLKKGTAQSNILDESTQMLDAHDNSLIKSPVFQKLKDEYELIKSVANGSEKDTQQSIFLGNITQLYDNKLYEVAVIRRFKDIETLAKKLTKENKIKRTLLERFQREKVTLRNFQIGDLALFLPTRENVNSVGSMSSSTSSLSSSFSSVDLSTPPPLDAMSIQSSPSVIHSNVINQASISGRDKNKLMRPWAAFTAFEESTRYFLKDEKGLTKGKEWFVGRIVTLEHFVADSPSNNPFRLPKGSVWFQVTAVVVSYQGV
notes: Atg11, Saccharomyces cerevisiae, residues 700-1178 (55 kDa); Expressed from a modified pMAL-c2E vector as an MBP fusion with an HRV3C site; MBP was cleaved off; A few residues of the site may remain; also called Atg11_C; source: E. coli BL21(DE3), purified (Amylose, HRV3C cleavage, SP-Sepharose, Superdex 200)
As to B3, the “copies from the apparent SEC mass” value with Q12527 [3] is 6 and 7–8 copies of each protein, respectively. Further, the “stoichiometry N” value in data set [4] is 2.1 copies.

One may read the stoichiometry N as a count of units in the complex or per binding partner.
